In patent US20060280645A1, “Method for terminal sterilization of transdermal delivery devices” (priority 2005, published 2006):

Assay: Terminal sterilization by e-beam irradiation: BNP purity and degradation products by RP-HPLC
Format: physicochemical
Details: best performing system (Example 4)
Method: FIGS. 14-16 detail the major degradation pathways for BNP coated on microprojections for all conditions treated by e-beam. […] All modes of degradation are reduced for the microprojection members packaged with desiccant and pre-dried retainer rings and purged with argon.
In this example, methionine from JT Baker (Phillipsburg, N.J.) was added to the BNP formulations in the amount of 1% by weight. These coating formulations were then irradiated using either e-beam or gamma radiation at varying temperatures and under varying atmospheric conditions. FIGS. 17-20 show the purity and degradation of the samples following gamma irradiation and FIGS. 21-24 show the purity and degradation of the samples following e-beam irradiation.
Further, systems packaged with pre-dried retainer rings performed better than systems stored with desiccant when terminally sterilized by e-beam. The best performing system retained 95.1% of the BNP purity, representing only approximately a 2% drop from the initial material purity.

Substance: BNP
- BNP purity retained: 95.1%
- drop from the initial material purity: ~2%
